Assay results from publication PMC9597087.

Target: microtubules (human (endogenous in U2-OS)) (UniProt Q71U36)
Assay: FRAP (fluorescence recovery after photobleaching); living U2-OS cells 48h after transfection, interphase, no STLC; 1.5 um^2 areas bleached, spinning disk confocal; traces analysed with easyFRAP, normalised to pre-bleaching intensity

mobility fraction (FRAP): 0.06
Substance: GFP-tagged Eg5(T107N) (from UniProt P52732 1-1056) (natural protein)
